This is an account of results in patent US20210040209A1 (Janssen / Centocor, published 2021).

The target of test [1] is T1, human CD3 epsilon on cells (primary human T cells; mononuclear cells of human tissue) (human, UniProt P07766 23-207).
T1 construct: Part of the TCR/CD3 complex on T cells; also called CD3ε; cell-surface CD3ε
Put plainly: tissue cross-reactivity staining of cryosections of normal human tissues. On the procedure:
A GLP cross-reactivity study was conducted in cryosections of normal human tissues with the study drug and its anti-PSMA parental (bivalent) antibody (positive control). No unanticipated tissue cross-reactivity of the study drug was observed. Membrane staining of epithelial cells and staining of extracellular material in the prostate with both the study drug and the anti-PSMA parental antibody was anticipated due to PSMA expression in these tissues. Staining of mononuclear cells with the study drug only was expected based on the expression of CD3ε on T cells.

For test [2], the target named is human PSMA on cells (LNCaP, C4-2B, LNCaP AR, 22RV1 prostate tumor cell lines; human prostate tissue) (human, UniProt Q04609 1-750). Put plainly: cell-based or functional assay.
Chain of human PSMA on cells (LNCaP, C4-2B, LNCaP AR, 22RV1 prostate tumor cell lines; human prostate tissue) (Q04609 whole entry): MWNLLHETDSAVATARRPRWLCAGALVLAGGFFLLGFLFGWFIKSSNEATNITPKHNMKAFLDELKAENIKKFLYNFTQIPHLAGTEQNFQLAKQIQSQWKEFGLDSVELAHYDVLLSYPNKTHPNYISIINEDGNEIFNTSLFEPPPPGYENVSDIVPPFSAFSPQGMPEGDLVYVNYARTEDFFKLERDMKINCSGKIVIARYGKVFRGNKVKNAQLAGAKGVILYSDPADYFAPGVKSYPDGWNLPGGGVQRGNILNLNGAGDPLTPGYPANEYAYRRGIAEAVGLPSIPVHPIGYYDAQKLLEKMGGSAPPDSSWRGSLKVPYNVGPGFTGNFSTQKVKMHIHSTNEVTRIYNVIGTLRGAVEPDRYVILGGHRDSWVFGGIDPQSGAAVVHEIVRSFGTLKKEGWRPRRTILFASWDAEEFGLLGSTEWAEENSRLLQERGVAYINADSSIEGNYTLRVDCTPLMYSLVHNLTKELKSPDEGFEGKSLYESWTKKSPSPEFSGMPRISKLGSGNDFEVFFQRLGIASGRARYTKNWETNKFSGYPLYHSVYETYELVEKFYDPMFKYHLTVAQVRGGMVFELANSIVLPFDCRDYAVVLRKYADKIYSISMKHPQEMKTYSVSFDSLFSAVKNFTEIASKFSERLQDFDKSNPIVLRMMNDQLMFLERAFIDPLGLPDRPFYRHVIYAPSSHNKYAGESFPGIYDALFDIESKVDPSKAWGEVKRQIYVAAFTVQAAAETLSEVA

T1 sequence (P07766 23-207 limits assumed): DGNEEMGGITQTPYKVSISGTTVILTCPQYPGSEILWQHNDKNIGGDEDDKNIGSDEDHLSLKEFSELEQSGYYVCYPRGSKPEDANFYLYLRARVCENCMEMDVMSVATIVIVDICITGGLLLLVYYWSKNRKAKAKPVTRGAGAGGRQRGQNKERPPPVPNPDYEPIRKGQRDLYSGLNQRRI

B1: PS3B27 PSMAxCD3 bispecific antibody (PSMB127 x CD3B219) (bispecific antibody, human IgG4 S228P, kappa, lambda, F234A L235A)
heavy 1: not shown
light 1: not shown
heavy 2: EVQLVESGGGLVQPGGSLRLSCAASGFTFNTYAMNWVRQAPGKGLEWVARIRSKYNNYATYYAASVKGRFTISRDDSKNSLYLQMNSLKTEDTAVYYCARHGNFGNSYVSWFAYWGQGTLVTVSSASTKGPSVFPLAPCSRSTSESTAALGCLVKDYFPEPVTVSWNSGALTSGVHTFPAVLQSSGLYSLSSVVTVPSSSLGTKTYTCNVDHKPSNTKVDKRVESKYGPPCPPCPAPEAAGGPSVFLFPPKPKDTLMISRTPEVTCVVVDVSQEDPEVQFNWYVDGVEVHNAKTKPREEQFNSTYRVVSVLTVLHQDWLNGKEYKCKVSNKGLPSSIEKTISKAKGQPREPQVYTLPPSQEEMTKNQVSLTCLVKGFYPSDIAVEWESNGQPENNYKTTPPVLDSDGSFLLYSKLTVDKSRWQEGNVFSCSVMHEALHNHYTQKSLSLSLGK
light 2: QTVVTQEPSLTVSPGGTVTLTCRSSTGAVTTSNYANWVQQKPGQAPRGLIGGTNKRAPGTPARFSGSLLGGKAALTLSGVQPEDEAEYYCALWYSNLWVFGGGTKLTVLGQPKAAPSVTLFPPSSEELQANKATLVCLISDFYPGAVTVAWKADSSPVKAGVETTTPSKQSNNKYAASSYLSLTPEQWKSHRSYSCQVTHEGSTVEKTVAPTECS
notes: also called the study drug
As to B1, in test [1], the binding result is on record as “binds”. In test [2], the “CD25 expression on T cells co-cultured with C4-2B cells, median EC50” value was 0.06 nM and the “T cell dependent cytotoxicity of C4-2B cells, median EC50” value is 0.08 nM.
